In one assay the target is T1, mouse serum albumin (mouse, UniProt P07724 25-608).
T1 construct: also called MuSA
Put plainly: BLI (OCTET RED96), VHH-IgG1-Fc on protein A biosensor, pH 7.4. The method, then:
(§1) The VHH anti-albumin antibodies were evaluated for their ability to interact with human, monkey, and mouse serum albumins at different pH values, e.g., pH 7.4 or pH 5.5 to simulate the pH of an acidified endosome. Briefly, a VHH anti-albumin antibody was fused onto a human IgG1-Fc. The expressed protein was then loaded onto a protein A biosensor (OCTET® RED96). The biosensor was in turn dipped into a solution containing a human, monkey, or mouse serum at three or more different concentrations, e.g., 50, 100, or 200 nM, or 100, 200, or 400 nM. Primary experimental data was analyzed with global fitting to determine a dissociation constant (KD). The results are summarized in Table 7 (pH 5.5) and Table 8 (pH 7.4), wherein A represents a value no greater than 10 nM, B represents a value greater than 10 nM but no greater than 100 nM, and C represents a value greater than 100 nM but no greater than 500 nM.

Assay [1] concerns the target T2, monkey serum albumin (monkey (cynomolgus monkey in paragraph 472), UniProt A2V9Z4 25-608).
T2 construct: also called cynomolgus monkey serum albumin; CySA
The assay is described as above. The method, then:
as §1

For assay [2], the target named is T3, human serum albumin (human, UniProt P02768 25-609).
T3 construct: The immunogen was rice-expressed HSA (Sigma A9731); also called HSA
Briefly: BLI (OCTET RED96), VHH-IgG1-Fc on protein A biosensor, albumin in solution, pH 5.5; grade legend in paragraph 477. The method, then:
as §1

The target of assay [3] is T2, monkey serum albumin. Put plainly: BLI (OCTET RED96), VHH-IgG1-Fc on protein A biosensor, albumin in solution, pH 7.4; grade legend in paragraph 477. The method, then: as §1
For assay [4], the target named is T3, human serum albumin. Put plainly: BLI (OCTET RED96), VHH-IgG1-Fc on protein A biosensor, pH 7.4. The method, then: as §1
Assay [5] deals with T3, human serum albumin. Briefly: BLI (OCTET RED96), VHH-IgG1-Fc on protein A biosensor, albumin in solution, pH 7.4; grade legend in paragraph 477. The method, then:
as §1

Where only a bound is given, the exact number is not on record here.

B1: anti-HSA VHH antibody A7 fused onto a human IgG1-Fc (Fc fusion)
chain: QVQLVESGGGLVQAGGSLRLSCAASGRSVSLYHVGWFRHTPGKEREFVAATAWHDGSTSYADSVKGRFTISRDSAKNTVFLQMSSLQPEDTAVYYCAADPGGSSWSQPWYDYWGQGTQVTVSS
notes: Llama VHH; also called Ab A7; not shown: human IgG1 Fc
Take B1: the binding result in the assay with mouse serum albumin is “no binding”.

B2: anti-HSA VHH antibody A15 fused onto a human IgG1-Fc (Fc fusion)
chain: QVQLVESGGGLVQPGGSLRLSCAASGFAFRGFGMSWVRQAPGKGFEWVSSINNGGSDTRYADSVKGRFTISRDNARNTLYLQMNSLKPEDTAVYYCAIGGPGASPSGQGTQVTVSS
notes: Llama VHH; also called Ab A15; not shown: human IgG1 Fc
Regarding B2, in the assay with mouse serum albumin, the binding result is “no binding”.

B3: humanized anti-HSA VHH antibody A20 fused onto a human IgG1-Fc (Fc fusion)
chain: QVQLVESGGGVVQPGGSLRLSCAASGFAFRGFGMSWVRQAPGKGLEWVSSINNGGSDTYYADSVKGRFTISRDNSKNTLYLQMNSLRAEDTAVYYCAIGGPGASPSGQGTQVTVSS
notes: also called Ab A20; anti-HSA A20; not shown: human IgG1 Fc
Take B3: the binding result in the assay with mouse serum albumin was “no binding”.

B4: anti-HSA VHH antibody A14 fused onto a human IgG1-Fc (Fc fusion)
chain: QVQLVESGGGLVQPGGSLRLSCAASGFTFRGFGMSWVRQAPGKGFEWVSSINSGGEDTRYSDSVKGRFTISRDNARNTLYLQMNSLKPEDTAVYYCAIGGAGATPSGQGTQVTVSS
notes: Llama VHH; also called Ab A14; not shown: human IgG1 Fc
On to B4, for which the binding result with mouse serum albumin was “no binding”.

B5: anti-HSA VHH antibody A12 fused onto a human IgG1-Fc (Fc fusion)
chain: EVQLVESGGGLVQPGGSLRLSCAASGFTFRGFGMSWVRRAPGKEFEWVSSINGGGEDTRYSDSVKGRFTISRDNARNTLYLQMNSLKPEDSAVYYCAIGGPGATPSGPGTQVTVSS
notes: Llama VHH; also called Ab A12; not shown: human IgG1 Fc
On to B5, for which, in the assay with mouse serum albumin, the binding result is reported as “no binding”.

B6: anti-HSA VHH antibody A16 fused onto a human IgG1-Fc (Fc fusion)
chain: QVQLVESGGGLVQAGGTLRLSCTASGSTFRGNGMAWHRQAPGKEREFVAYMGMTDRITYAESVKGRFTLSRDDAKNRVYLHMNNLEVEDTAVYYCTAFGSWGQGTQVTVSS
notes: Llama VHH; also called Ab A16; not shown: human IgG1 Fc
As for B6, the binding result with monkey serum albumin [1] and with mouse serum albumin was “no binding” each time.

B7: anti-HSA VHH antibody A8 fused onto a human IgG1-Fc (Fc fusion)
chain: QVQLVESGGGLVQPGGSLRLSCAASGSTWSINTLAWYRQAPGKQRDLVARISSGGSTHYADSVKGRFTVSRDNAENTLVLQMNSLKPEDTAVYYCYAQSTWYPPSWGQGTQVTVSS
notes: Llama VHH; also called Ab A8; not shown: human IgG1 Fc
What is called Kd is the free concentration of one partner at which half of the binding sites on the other are occupied at equilibrium, for simple one-to-one binding. As to B7, in the assay with human serum albumin [2], the Kd was ≤ 10 nM.

B8: humanized anti-HSA VHH antibody A19 fused onto a human IgG1-Fc (Fc fusion)
chain: EVQLVESGGGLVQPGGSLRLSCAASGSTWSINTLAWYRQAPGKQRDLVARISSGGSTYYADSVKGRFTISRDNSKNTLYLQMNSLRAEDTAVYYCYAQSTWYPPSWGQGTLVTVSS
notes: also called Ab A19; anti-HSA A19; not shown: human IgG1 Fc
With B8, in the assay with monkey serum albumin [3], the Kd was ≤ 10 nM.

B9: anti-HSA VHH antibody A11 fused onto a human IgG1-Fc (Fc fusion)
chain: QVQVVESGGGLVQPGGSLRLSCAASGMSSANVMGWYRQVPGNQRELVARITSSGRTMYSDSVLGRFTISRGGAGNTADLQMNMLKPEDTAIYICNIRILGSFDPDSGYWGQGTQVTVSS
notes: Llama VHH; also called Ab A11; not shown: human IgG1 Fc
B9: the binding result with human serum albumin [4], with monkey serum albumin [1] and with mouse serum albumin was “no binding” throughout.

B10: anti-HSA VHH antibody A2 fused onto a human IgG1-Fc (Fc fusion)
chain: QVQLVESGGGLVQAGGSLRLSCAASGRSVSLYHVGWFRHTPGKEREFVAATAWHDGSTSYADSVKGRFTISRNNAKNTVYLQMNSLQPEDTAVYYCAGEAKLGGIYSRWRDYEYWGQGTQVTVSS
notes: Llama VHH; also called Ab A2; not shown: human IgG1 Fc
For the molecule B10, the Kd in the assay with human serum albumin [5] and in the assay with monkey serum albumin [3] was ≤ 10 nM each time. Also, the binding result with mouse serum albumin is on record as “no binding”.

B11: anti-HSA VHH antibody A6 fused onto a human IgG1-Fc (Fc fusion)
chain: QVQLVESGGGLVQAGGSLRLSCAASGRSVSLYHVGWFRHTPGKEREFVAATAWHDGSTSYADSVKGRFTISRNNAKNTVYLQMNSLQPEDTAVYYCAGEAKLGGIYSRWRDYEYWGQGTQVTVSS
notes: Llama VHH; also called Ab A6; not shown: human IgG1 Fc
With B11, the Kd with human serum albumin [5] and with monkey serum albumin [3] was ≤ 10 nM each time. Further, in the assay with mouse serum albumin, the binding result is on record as “no binding”.

B12: anti-HSA VHH antibody A1 fused onto a human IgG1-Fc (Fc fusion)
chain: QVQLVESGGGLVQPGGSLRLSCAASGRIFSTYAMGWFRQPPGKEREFVASINRSGDSTYYADSVKGRFTISRDNAKNTGYLQMSSLKPEDTAVYYCAADSDGIGWFNSFEYDYWGRGTQVTVSS
notes: Llama VHH; also called Ab A1; not shown: human IgG1 Fc
As for B12, the dissociation constant (Kd) with human serum albumin [5] and with monkey serum albumin [3] was ≤ 10 nM in each case. Also, the binding result with mouse serum albumin was “no binding”.

B13: anti-HSA VHH antibody A4 fused onto a human IgG1-Fc (Fc fusion)
chain: QVQLVESGGGLVQPGGSLRLSCAASGRIFSTYAMGWFRQPPGKEREFVASINRSGDSTYYADSVKGRFTISRDDAKNMGYLQMSSLKPEDTAVYYCAADSDGIGWFNSFEYDYWGRGTQVTVSS
notes: Llama VHH; also called Ab A4; not shown: human IgG1 Fc
As to B13, in the assay with monkey serum albumin [3], the Kd was ≤ 10 nM. Moreover, the binding result in the assay with mouse serum albumin is listed as “no binding”.

B14: anti-HSA VHH antibody A17 fused onto a human IgG1-Fc (Fc fusion)
chain: QVQLVESGGELVQAGGSLRLSCVVSGRTFRTRTMGWFRQAPGKEREYVAHISANGPITDYSDSVKGRFAISRDNAKNTVNLQMNSLKPEDTAVYYCALHNGIGVRTVPSQYDSWGQGTQVTVSS
notes: Llama VHH; also called Ab A17; not shown: human IgG1 Fc
As for B14, the binding result with monkey serum albumin [1] and in the assay with mouse serum albumin was “no binding” each time.

B15: anti-HSA VHH antibody A13 fused onto a human IgG1-Fc (Fc fusion)
chain: QVQLVESGGGSVQPGGSLRLSCAASGRNFNPMGWFRQAPGKQRESVAAIGTDGSTKYADSVKGRFTISRDNGKNTVYLQMNSLKSEDTAVYYCNVGGWGISWFPWGRGTQVSVSS
notes: Llama VHH; also called Ab A13; not shown: human IgG1 Fc
Take B15: the binding result with mouse serum albumin is “no binding”.

B16: anti-HSA VHH antibody A9 fused onto a human IgG1-Fc (Fc fusion)
chain: QVQLVESGGGLVQAGGSLRLSCAASGRTFSNDAMGWFRQAPGKERVFVATISWKSSTYYADSVKGRFTISRDHAKNTVYLQMNNLKPEDTAVYYCVADPYGLGFNPSDYDYWGQGTQVTVSS
notes: Llama VHH; also called Ab A9; not shown: human IgG1 Fc
For B16, the Kd in the assay with human serum albumin [5] was ≤ 10 nM. In the assay with mouse serum albumin, the binding result is reported as “no binding”.

B17: anti-HSA VHH antibody A18 fused onto a human IgG1-Fc (Fc fusion)
chain: QEQLVESGGGLVQAGGSLRLSCAASTRTINIYAMAWFRQAPGKEREFVAAVTWSGLTRDYADSVKGRFTISRDNPKNTLYLQMNSLQPEDTAVYYCAAGRYSTGTHDYDYWGQGTQVTVSS
notes: Llama VHH; also called Ab A18; not shown: human IgG1 Fc
Take B17: the binding result with human serum albumin [4], with monkey serum albumin [1] and in the assay with mouse serum albumin was “no binding” throughout.

B18: anti-HSA VHH antibody A10 fused onto a human IgG1-Fc (Fc fusion)
chain: QVQLVESGGGLVQAGGSLRLSCLASGGTFSSYAMGWFRQAPGKEREFVAAISWKSSTYYTDSVKGRFTISRDNAKNTVYLQMNSLTPEDTAVYYCAADPTGSYDQPWYDYWGQGTQVTVSS
notes: Llama VHH; also called Ab A10; not shown: human IgG1 Fc
With B18, in the assay with mouse serum albumin, the binding result is on record as “no binding”.

B19: anti-HSA VHH antibody A3 fused onto a human IgG1-Fc (Fc fusion)
chain: QVQLVESGGGLVQAGGSLRLSCAASGRTFSIYDMGWFRQAPGKEREFVAATNLRGVSTRYADSVKGRFTISGDNAKNTVSLQMNSLIPEDTAVYYCAAAVSNWLAKDPSAYSYWGQGTQVTVSS
notes: Llama VHH; also called Ab A3; not shown: human IgG1 Fc
As to B19, the Kd in the assay with human serum albumin [5] is ≤ 10 nM. Further, the binding result with mouse serum albumin is “no binding”.

Values taken from US20220195021A1 (ANWITA BIOSCIENCES, published 2022).
